In patent US20230203200A1:
Each block holds one binder with its values, some of them ahead of it.

Columns and labels:
[1] = target: CD3 (CD3ε/δ-complex) on T cells (human) (UniProt P07766); test: flow cytometry on Jurkat cells (CD3+ and TCRab+), PE-labeled secondary reagent
[2] = target: CD3 (CD3ε/δ-complex) on T cells (human) (UniProt P07766); test: flow cytometry on Jurkat cells (CD3+, TCRab+), bound TCER stained with a PE-labeled secondary reagent
[3] = target: TCR alpha/beta on Jurkat cells (human); test: flow cytometry on Jurkat cells (CD3+ and TCRab+), PE-labeled secondary reagent

UniProt P07766, sequence (P07766 23-207, stated change not applied, chain 1 of 2): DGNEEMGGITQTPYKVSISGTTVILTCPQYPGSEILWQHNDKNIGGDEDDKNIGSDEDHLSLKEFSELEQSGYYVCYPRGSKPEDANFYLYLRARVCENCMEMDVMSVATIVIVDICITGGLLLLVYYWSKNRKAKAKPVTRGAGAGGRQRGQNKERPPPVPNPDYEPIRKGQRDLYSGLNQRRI
UniProt P07766, sequence (P04234 22-171, stated change not applied, chain 2 of 2, further chain): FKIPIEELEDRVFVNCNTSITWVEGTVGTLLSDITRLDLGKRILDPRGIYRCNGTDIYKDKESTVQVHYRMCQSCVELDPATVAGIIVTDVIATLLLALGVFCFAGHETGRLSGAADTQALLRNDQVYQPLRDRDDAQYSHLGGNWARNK

EC50 [1]: 2 to 3 nM
EC50 (read off the curve) [2]: 2 nM
B1: PRAME-004 targeting TCER® molecule with the recruiting domains of humanized UCHT1(V17) (protein)
chain 1: QKEVEQNSGPLSVPEGAIASLNCTYSDRGSQSFFWYRQYSGKSPELIMSIYSNGDKEDGRFTAQLNKASQYVSLLIRDSQPSDSATYLCAAVIDNDQGGILTFGTGTRLTIIPNIQNGGGSGGGGDIQMTQSPSSLSASVGDRVTITCRASQDIRNYLNWYQQKPGKAPKLLIYYTSRLHSGVPSRFSGSGSGTDYTLTISSLQPEDIATYFCQQGQTLPWTFGQGTKVEIKEPKSSDKTHTCPPCPAPPVAGPSVFLFPPKPKDTLMISRTPEVTCVVVDVSHEDPEVKFNWYVDGVEVHNAKTKPREEQYQSTYRVVSVLTVLHQDWLNGKEYKCKVSNKALPASIEKTISKAKGQPREPQVYTLPPCRDELTKNQVSLWCLVKGFYPSDIAVEWESNGQPENNYKTTPPVLDSDGSFFLYSKLTVDKSRWQQGNVFSCSVMHEALHNHYTQKSLSLSPGK
chain 2: EVQLVQSGAEVKKPGASVKVSCKASGYSFTGYTMNWVRQAPGQGLEWMGLINPYKGVSTYAQKFQDRVTLTVDKSTSTAYMELSSLRSEDTAVYYCARSGYYGDSDWYFDVWGQGTLVTVSSGGGSGGGGKAGVTQTPRYLIKTRGQQVTLSCSPIPGHRAVSWYQQTPGQGLQFLFEYVHGEERNKGNFPGRFSGRQFSNSSSEMNISNLELGDSALYLCASSPWDSPNVQYFGPGTRLTVTEDLKNEPKSSDKTHTCPPCPAPPVAGPSVFLFPPKPKDTLMISRTPEVTCVVVDVSHEDPEVKFNWYVDGVEVHNAKTKPREEQYQSTYRVVSVLTVLHQDWLNGKEYKCKVSNKALPASIEKTISKAKGQPREPQVCTLPPSRDELTKNQVSLSCAVKGFYPSDIAVEWESNGQPENNYKTTPPVLDSDGSFFLVSKLTVDKSRWQQGNVFSCSVMHEALHNHYTQKSLSLSPGK

fold weaker binding than the UCHT1-based TCER®-molecule [3]: 50 to 100 fold
B2: PRAME-004 targeting TCER® molecule with the recruiting domains of humanized BMA031(V10) (protein)
chain 1: QIQMTQSPSSLSASVGDRVTITCSATSSVSYMHWYQQKPGKAPKRWIYDTSKLASGVPSRFSGSGSGTDYTLTISSLQPEDAATYYCQQWSSNPLTFGGGTKVEIKGGGSGGGGKAGVTQTPRYLIKTRGQQVTLSCSPIPGHRSVSWYRQTPGQGLQFLFEYVHGEERNKGNFPGRFSGRQFSNSSSEMNISNLELGDSALYLCASSPWDSPNVQYFGPGTRLTVTEDLKNEPKSSDKTHTCPPCPAPPVAGPSVFLFPPKPKDTLMISRTPEVTCVVVDVSHEDPEVKFNWYVDGVEVHNAKTKPREEQYQSTYRVVSVLTVLHQDWLNGKEYKCKVSNKALPASIEKTISKAKGQPREPQVYTLPPCRDELTKNQVSLWCLVKGFYPSDIAVEWESNGQPENNYKTTPPVLDSDGSFFLYSKLTVDKSRWQQGNVFSCSVMHEALHNHYTQKSLSLSP
chain 2: QKEVEQNSGPLSVPEGAIASLNCTYSDRGSQSFFWYRQYSGKSPELIMSIYSNGDKKDGRFTAQLNKASQYVSLLIRDSQPSDSATYLCAAVIDNDQGGILTFGTGTRLTIIPNIQNGGGSGGGGEVQLVQSGAEVKKPGASVKVSCKASGYKFTSYVMHWVRQAPGQGLEWMGYINPYNDVTKYAEKFQGRVTLTSDTSTSTAYMELSSLRSEDTAVHYCARGSYYDYDGFVYWGQGTLVTVSSEPKSSDKTHTCPPCPAPPVAGPSVFLFPPKPKDTLMISRTPEVTCVVVDVSHEDPEVKFNWYVDGVEVHNAKTKPREEQYQSTYRVVSVLTVLHQDWLNGKEYKCKVSNKALPASIEKTISKAKGQPREPQVCTLPPSRDELTKNQVSLSCAVKGFYPSDIAVEWESNGQPENNYKTTPPVLDSDGSFFLVSKLTVDKSRWQQGNVFSCSVMHEALHNHYTQKSLSLSP
